Assay results: the nanobody polyreactivity screen of Harvey et al. (2022)

Assay: yeast display, Sf9 membrane polyspecificity reagent, FACS + sequencing; frameworks hold sequencing errors
Outline: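 Nanobodies came from a synthetic yeast display library in Saccharomyces cerevisiae BJ5465, induced with galactose for 36–48 hours and stained for 1 hour at 4 °C with 10% biotinylated, detergent-solubilized Sf9 membrane reagent. Cells were enriched on streptavidin microbeads and then FACS-sorted, with low and high (top ~1%) gates set on anti-HA fluorescence for expression and streptavidin fluorescence for reagent binding. Each polyreactivity label reflects the gate a clone came from. Genes were amplified by colony PCR, sequenced by MiSeq 2 × 250 and filtered by CDR length.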

Sequence | polyreactivity (PSR sort gate)
QVQLVESGGGLVQAGGSLRLSFAASGSIINAYAMGWYRQAPGKERELVAAINSGGTTYYADSVKGRFTISRDNAKNTVYLQLNSLKPEDTAVYYCAKTRSYGRSGVSRRDGFYYWGQGTQVTVSS | high polyreactivity
QVQLVESGGGLVQAGGSLRLSFAASGSTFRRYDMGWYRQAPGKERELVADISDRGSRTYYADSVKGRFTISRDNAKKTVYFQMNSLEPEYTAVYYCAAEAVGNTSPGDYWGQGTQVTVSS | high polyreactivity
QVQLVESGGGLVQAGGSLRLSFAPSGRIVPNAMGWYRQAPGKDREMVAAISRSGGSTYYADSVKGRFTISRDNAKNTVYLQMNSLKPEDTAVYYCAKRSTSQSLQGEYWGQGTQVTVSS | high polyreactivity
QVQLVESGGGLVQAGGSLRLSFDASGSIFSFYAMGGYSQAPGKERELVAAIRWSGGRTYYADSVKGRFTISRDPAKNTVYLQMNSLKPEDTAVYYCAADKYLDYDYWGQGTQVTVSS | high polyreactivity
QVQLVESGGGLVQAGGSLRLSFSASGSTFTSNAMGWYRQAPGKERELVASISGSGGRTYYADSVKGRFTISRDNAKNTVYLQMNSLKPEDTAVYYCNAESRNLYSTQFDYWGQGTQVTVSS | low polyreactivity
QVQLVESGGGLVQAGGSLRLSGAAKGSTFRQYAMGWYRQATGKERELVAAISSGGRTNYPDSVKGRFTISRDNAKNTVYFHMNSQKPVDTAVYYSAARFYFQFRRFRRMDYWGQGTQVTVSS | high polyreactivity
QVQLVESGGGLVQAGGSLRLSGAASGRIFYSNAMGWYRQAHGKERELVAAITRAGSTNYADSVKGSFTISRDIAKNTVYLQMNSLKPDDTAVYDCAATYGCSVFEYDYWGQGTQVTVSS | low polyreactivity
QVQLVESGGGLVQAGGSLRLSGAASGRNFSTNAMGWYRPAPGKERELVAAITSGGNTYADSVKGRFTISRDNAKNTVYLQMNSLKPEDTAVYYCAARLYWGRYNYWGQGTQVTVSS | high polyreactivity
QVQLVESGGGLVQAGGSLRLSGAASGRTFVSYTMGWYRQAPGKERQLVAAISDDGDSTYYADSVKGRFTISRDYAKNTVYLQMNSLKPEDTAVYYCAAGEYQYFWFPFDYWGQGTQVTVSS | low polyreactivity
QVQLVESGGGLVQAGGSLRLSGAASGRTLYCYAMGWSRQAPGKEREFVAAMSRSGGSTYYADSVKGRFTISRDNAKNTVYLQMNRLKPEETAVYYCADDRSFLQIYKAGPQYRSNYWGQGTQVTVSS | high polyreactivity
QVQLVESGGGLVQAGGSLRLSGAASGSIFRDNGMGWYRPAPGKERELVAAINSGDSTYYADSVKGRFTISRDNAKNTVYLQLNSLKPEDTAVYYCNADDRRALSQRQYDWYDYWGQGTQVTVSS | low polyreactivity
QVQLVESGGGLVQAGGSLRLSGAASGSTFIINAMGWSSQAPGKELELVAAISGRGTRTYYADSVKGRFTISRDNAKNTVYLQMNSLNPEDTAVYSCAALDTAGPYNTLDIYDHWGQGTQVTVSS | high polyreactivity
QVQLVESGGGLVQAGGSLRLSGAASGYIFLGNAMGWYRQAPGKERELVAAISRSGGSTYYADSVKGRFTISRDNAKNTVYFHMNSLKPEYTAVYYCAADLPNPKWYGYDYWGQGTQVNVSS | high polyreactivity
QVQLVESGGGLVQAGGSLRLSGDASGSTFIYNAMGWYRQAPGKERELVAAIDWSGGDTYYADSVKGRFTISRDKAKNTVYLLMNSLKPEDTAVYYCAAVKRGGFYWGQGTQVTVSS | high polyreactivity
QVQLVESGGGLVQAGGSLRLSRAASGFTLAYYAMGWYRQAPGKERELVAAITADTGTTYYADSVKGRFTISRDNAKNTVYLQMNSLKPEDTAVYYCATRDVFYDDDYWGQGTQVTVSS | high polyreactivity
QVQLVESGGGLVQAGGSLRLSRAASGRSYVYAMGWYRQAPGTETEVVAAISTISSSTYYADSVKGRFTISRDNAKNTVYLQMNSLKPEDTAVYYCAADYSQYYYYGWIDSDYWGQGTQVTVSS | high polyreactivity
QVQLVESGGGLVQAGGSLRLSRAASGSTFSGYTMGWYRQAPGKERELVAAISTSGGRTSYADSVKGRFTISRDNAKTSVYLQMNSLKPEDTAVYYCAARRWERRVRPGYYPYDYWGQGTQVTVSS | high polyreactivity
QVQLVESGGGLVQAGGSLRLSSAAAGRLLSRDAMGWYRQAPGKERELVATLSSGGGTYYADSVKGRFTISRDNSKNTVYLQMNSLKRVDTAVYYCAVQAWYGRYYYWGQGTQVTVSS | high polyreactivity
QVQLVESGGGLVQAGGSLRLSSAACGTIFVLNAMGWYRPAPGKERELVAAITNVGSTYYADSVKGRFTISRDNAKNTFYLQMNSLKPEDTAVYYCNADPGEVLVGYDYWGQGTQVTVSS | low polyreactivity
QVQLVESGGGLVQAGGSLRLSSAASGFIFNTNAMGWYRQAPGKERELVAAISGGGSTYYAVSVKGRFTLSRDNAKQTVYLQMNSLKPDDTAVYYCAAVPFYRYDYWGQGTQVTVSS | low polyreactivity
QVQLVESGGGLVQAGGSLRLSSAASGFTFGSYAMGWYRQAPGKERELVAAIRASGGRTYYADSVKGRFTISRDNAKNTVYLQMNSLKPEDTAVYYCAAQLPMGKRYYYWGQGTQVTVSS | high polyreactivity
